PMC9122904, “Insights into the client protein release mechanism of the ATP-independent chaperone Spy” (Nature Communications, 2022)

What was measured:
Assay in all cases: BLI; Octet RED96; client biotinylated and loaded on streptavidin sensors; Spy or Spy variant in solution at 0.25, 0.5, 1, 1.5 and 2 μM; 40 mM HEPES, 150 mM NaCl, pH 7.5; Kd calculated as koff/kon
Settings in all cases: both partners purified
[1] = molecular target: T1, Spy_(K75D) (UniProt P77754 24-161, K75D)
T1 construct: also called control protein; source: E. coli BL21 (DE3), purified (Ni-NTA, cation exchange, SEC); not shown: His6, N-terminal, cleaved; SUMO, N-terminal, cleaved
T1 sequence (looked up): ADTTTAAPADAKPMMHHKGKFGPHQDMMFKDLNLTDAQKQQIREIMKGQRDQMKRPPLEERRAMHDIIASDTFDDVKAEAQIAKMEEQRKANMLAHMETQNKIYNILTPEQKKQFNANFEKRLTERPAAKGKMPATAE
Summary of the method: (§1)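 Client proteins were biotinylated with EZ-link NHS-biotin at a 1:1 molar ratio, loaded onto streptavidin sensors, and measured by biolayer interferometry on an Octet RED96. The loaded sensors were dipped into 40 mM HEPES, 150 mM NaCl, pH 7.5 holding the analyte protein at 0.25, 0.5, 1, 1.5 or 2 μM, then moved to buffer without it. Fitting the wavelength-shift association and dissociation curves in SigmaPlot 12.0 gave the observed association rate and koff, kon was taken from the observed rate plotted against analyte concentration, and Kd was calculated as koff/kon.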

[2] = molecular target: T2, Spy D26K H65D (UniProt P77754 24-161, D26K | H65D)
T2 construct: source: E. coli BL21 (DE3), purified (Ni-NTA, cation exchange, SEC); not shown: His6, N-terminal, cleaved; SUMO, N-terminal, cleaved
T2 sequence (looked up): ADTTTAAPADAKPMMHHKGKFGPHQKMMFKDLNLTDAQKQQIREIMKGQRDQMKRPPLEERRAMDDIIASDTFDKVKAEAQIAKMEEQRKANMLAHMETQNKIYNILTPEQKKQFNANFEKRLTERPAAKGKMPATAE
Summary of the method: as §1

[3] = molecular target: T3, Spy_(D26K K54D R55D) (UniProt P77754 24-161, D26K | K54D | R55D)
T3 construct: source: E. coli BL21 (DE3), purified (Ni-NTA, cation exchange, SEC); not shown: His6, N-terminal, cleaved; SUMO, N-terminal, cleaved
T3 sequence (looked up): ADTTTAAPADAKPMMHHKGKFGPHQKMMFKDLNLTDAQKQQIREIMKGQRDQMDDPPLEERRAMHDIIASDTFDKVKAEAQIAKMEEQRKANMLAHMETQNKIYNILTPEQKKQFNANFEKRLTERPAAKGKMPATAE
Summary of the method: as §1

[4] = molecular target: T4, Spy H65D (UniProt P77754 24-161, H65D)
T4 construct: source: E. coli BL21 (DE3), purified (Ni-NTA, cation exchange, SEC); not shown: His6, N-terminal, cleaved; SUMO, N-terminal, cleaved
T4 sequence (looked up): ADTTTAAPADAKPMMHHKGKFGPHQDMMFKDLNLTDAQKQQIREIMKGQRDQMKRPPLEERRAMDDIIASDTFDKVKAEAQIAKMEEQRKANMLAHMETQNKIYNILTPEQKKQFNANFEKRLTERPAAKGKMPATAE
Summary of the method: as §1

[5] = molecular target: T5, Spy D26K K121D R122D (UniProt P77754 24-161, D26K | K121D | R122D)
T5 construct: source: E. coli BL21 (DE3), purified (Ni-NTA, cation exchange, SEC); not shown: His6, N-terminal, cleaved; SUMO, N-terminal, cleaved
T5 sequence (looked up): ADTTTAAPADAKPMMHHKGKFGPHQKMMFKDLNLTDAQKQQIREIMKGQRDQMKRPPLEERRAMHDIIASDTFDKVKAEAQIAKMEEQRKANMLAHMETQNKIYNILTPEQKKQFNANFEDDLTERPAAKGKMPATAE
Summary of the method: as §1

[6] = molecular target: T6, Spy_(K121D R122D) (UniProt P77754 24-161, K121D | R122D)
T6 construct: source: E. coli BL21 (DE3), purified (Ni-NTA, cation exchange, SEC); not shown: His6, N-terminal, cleaved; SUMO, N-terminal, cleaved
T6 sequence (looked up): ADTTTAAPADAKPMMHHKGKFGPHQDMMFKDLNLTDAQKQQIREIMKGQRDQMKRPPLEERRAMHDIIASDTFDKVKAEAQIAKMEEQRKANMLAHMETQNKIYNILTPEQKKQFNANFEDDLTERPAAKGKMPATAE
Summary of the method: as §1

[7] = molecular target: T7, Spy_(H96D) (UniProt P77754 24-161, H96D)
T7 construct: source: E. coli BL21 (DE3), purified (Ni-NTA, cation exchange, SEC); not shown: His6, N-terminal, cleaved; SUMO, N-terminal, cleaved
T7 sequence (looked up): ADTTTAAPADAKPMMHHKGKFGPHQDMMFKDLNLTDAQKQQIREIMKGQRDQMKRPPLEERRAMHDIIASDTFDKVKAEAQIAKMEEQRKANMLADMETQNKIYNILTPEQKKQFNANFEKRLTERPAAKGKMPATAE
Summary of the method: as §1

[8] = molecular target: T8, Spy_(R61D R62D) (UniProt P77754 24-161, R61D | R62D)
T8 construct: source: E. coli BL21 (DE3), purified (Ni-NTA, cation exchange, SEC); not shown: His6, N-terminal, cleaved; SUMO, N-terminal, cleaved
T8 sequence (looked up): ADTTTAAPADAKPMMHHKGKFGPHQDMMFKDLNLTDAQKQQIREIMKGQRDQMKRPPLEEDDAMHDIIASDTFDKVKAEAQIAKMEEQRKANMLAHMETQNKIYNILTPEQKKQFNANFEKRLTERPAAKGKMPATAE
Summary of the method: as §1

koff [1]: 0.183 s⁻¹
koff [2]: 0.284 s⁻¹
koff [3]: 0.425 s⁻¹
koff [4]: 0.427 s⁻¹
koff [5]: 0.202 s⁻¹
koff [6]: 0.46 s⁻¹
koff [7]: 0.42 s⁻¹
koff [8]: 0.0727 s⁻¹
B1: Im7 H40W L53A I54A (natural protein)
chain: MELKNSISDYTEAEFVQLLKEIEKENVAATDDVLDVLLEWFVKITEHPDGTDAAYYPSDNRDDSPEGIVKEIKEWRAANGKPGFKQG
modifications: biotin (EZ-link NHS-biotin, 1:1 molar ratio of biotin to protein)
notes: Im7 (colicin E7 immunity protein) with H40W L53A I54A; Spy was made with an N-terminal His6-SUMO tag that was cleaved; also called Im7AAW; partially folded client; source: purified by a similar procedure to Spy
